According to patent publication US20210054055A1 (UNIVERSITY OF VERMONT AND STATE AGRICULTURAL COLLEGE, published 2021):
Like-named read-outs stand apart in the source and are kept apart here.

Assays:
[1] = biological target: T1, Zika virus (ZIKV) virions, envelope protein E (Zika virus, UniProt A0A024B7W1 291-794)
[2] = biological target: T2, ZVEDI, recombinant ZIKV E domain I (Zika virus, UniProt A0A024B7W1 291-585); experiment: direct antigen coating ELISA
[3] = biological target: ZVEDIII, recombinant ZIKV E domain III (Zika virus, UniProt A0A024B7W1 586-693); experiment: direct antigen coating ELISA
ZVEDIII, recombinant ZIKV E domain III, sequence (A0A024B7W1 586-693 limits assumed): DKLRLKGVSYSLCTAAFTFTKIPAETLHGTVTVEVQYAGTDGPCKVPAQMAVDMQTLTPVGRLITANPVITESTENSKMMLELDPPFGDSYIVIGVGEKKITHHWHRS

[4] = biological target: T1, Zika virus (ZIKV) virions, envelope …; remark: listed apart in the source
[5] = biological target: T1, Zika virus (ZIKV) virions, envelope …; remark: listed apart in the source
[6] = biological target: T3, ZIKV recombinant E (ZIKV E80), recombinantly expressed monomeric ectodomain of ZIKV E protein (Zika virus, UniProt A0A024B7W1 291-694)
[7] = biological target: T1, Zika virus (ZIKV) virions, envelope …; remark: listed apart in the source
[8] = biological target: T3, ZIKV recombinant E (ZIKV E80), …; remark: listed apart in the source
[9] = biological target: T4, Dengue virus serotype 1 (DENV1) virions, envelope protein E (Dengue virus 1, UniProt P17763 281-775); experiment: antigen capture ELISA
T4 construct: domain: envelope protein E
T4 sequence (P17763 281-775 limits assumed): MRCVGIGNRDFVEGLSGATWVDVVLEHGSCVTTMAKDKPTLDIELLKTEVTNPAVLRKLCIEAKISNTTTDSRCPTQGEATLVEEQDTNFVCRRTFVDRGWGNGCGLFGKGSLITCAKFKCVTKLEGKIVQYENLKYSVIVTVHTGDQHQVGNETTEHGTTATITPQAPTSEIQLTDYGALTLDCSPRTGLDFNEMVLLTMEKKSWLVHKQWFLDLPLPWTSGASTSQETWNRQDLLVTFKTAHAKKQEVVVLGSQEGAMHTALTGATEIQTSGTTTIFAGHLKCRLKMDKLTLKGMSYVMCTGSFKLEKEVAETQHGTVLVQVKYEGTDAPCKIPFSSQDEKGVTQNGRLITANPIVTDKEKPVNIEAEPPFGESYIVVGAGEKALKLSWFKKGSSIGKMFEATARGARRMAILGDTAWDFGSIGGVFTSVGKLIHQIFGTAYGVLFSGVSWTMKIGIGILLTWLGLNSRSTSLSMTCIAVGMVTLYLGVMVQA

H/PF/2013 = H/PF/2013 (Zika virus); experiment: cell-based or functional assay
MR766 = biological target: T5, MR766; experiment: cell-based or functional assay
T5 envelope protein E: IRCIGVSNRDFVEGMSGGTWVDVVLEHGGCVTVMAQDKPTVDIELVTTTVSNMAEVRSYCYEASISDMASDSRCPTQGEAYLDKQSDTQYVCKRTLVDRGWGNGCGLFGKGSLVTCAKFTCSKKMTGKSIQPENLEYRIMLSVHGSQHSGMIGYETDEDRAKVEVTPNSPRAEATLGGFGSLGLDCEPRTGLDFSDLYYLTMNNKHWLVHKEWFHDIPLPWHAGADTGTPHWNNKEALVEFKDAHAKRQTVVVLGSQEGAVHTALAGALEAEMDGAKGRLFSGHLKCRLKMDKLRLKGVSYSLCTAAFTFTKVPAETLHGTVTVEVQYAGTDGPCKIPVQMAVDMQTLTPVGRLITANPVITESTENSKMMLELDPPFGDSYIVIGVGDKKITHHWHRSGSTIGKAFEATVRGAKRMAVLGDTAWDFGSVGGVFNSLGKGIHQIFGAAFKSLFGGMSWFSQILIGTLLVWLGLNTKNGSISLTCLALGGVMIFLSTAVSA

Dakar = Dakar (Zika virus); experiment: cell-based or functional assay
[10] = biological target: T3, ZIKV recombinant E (ZIKV E80), …; remark: listed apart in the source
[11] = biological target: T1, Zika virus (ZIKV) virions, envelope …; remark: listed apart in the source
[12] = biological target: ZIKV/2015/Paraiba, envelope protein E (Zika virus strain ZIKV/2015/Paraiba); experiment: cell-based or functional assay
[13] = biological target: T3, ZIKV recombinant E (ZIKV E80), …; experiment: direct antigen coating ELISA, 50 ng recombinant antigen per well; target ZIKV E80
[14] = biological target: T2, ZVEDI, recombinant ZIKV E domain I; experiment: direct antigen coating ELISA, 50 ng recombinant antigen per well; target ZVEDI (domain I)

B1: Anti-ZIKV clone DT168(A)-D1_G-9E (G9E) (antibody, V domains shown)
VH: EVQLVESGGGVVQPGRSLRLSCVASGFAFSNYHMHWVRQAPGKGLEWVAIIWDDGSDQYYADSVKGRFTISRDNSKNTLFLQMNRLRAEDTALYYCVGGSSAYNGDNGWREAASLDDWGQGTLVTVSS
VL: QSALTQPASVSGSPGQSITIFCSGSSNDVGGYNYVSWYQQYPGKVPKLLIYDVNSRPSGVSNRFSGSKSGNTASLTISGLQAEDEADYYCSSYTSRRTWVFGGGTIVTVL
notes: also called ZV2; G9E mAb
[1]
  IC50 (read off the curve): ~0.05 µg/mL
[2]
  binding result: no binding
[3]
  binding result: no binding
[4]
  IC50 (read off the curve): ~0.05 µg/mL
[5]
  EC50 (read off the curve): ~0.03 µg/mL
[6]
  EC50 (read off the curve): ~0.2 µg/mL
[7]
  IC50 (read off the curve): ~0.4 µg/mL
[8]
  EC50 (read off the curve): ~0.3 µg/mL
[9]
  binding result: no binding
H/PF/2013
  FRNT50 (focus reduction neutralization on Vero cells): 4.7 ng/mL
MR766
  FRNT50 (focus reduction neutralization on Vero cells): 2.3 ng/mL
Dakar
  FRNT50 (focus reduction neutralization on Vero cells): 14.6 ng/mL
[10]
  EC50 (read off the curve): ~0.2 µg/mL
[11]
  EC50 (read off the curve): ~0.03 µg/mL

B2: Anti-ZIKV clone DT168(A)-D1_A-9E (A9E) (antibody, V domains shown)
VH: EVQLLESGGGLVQAGGSLRLSCAASGFTFDTYAMSWVRQPPGKGLEWVSAISTGGGSKYYADSVKGRLTISRDNSQNTLYLQMSSLRADDTAVYYCARSDFWRSGRYYYYMDVWGRGTTVTVSS
VL: QSALTQPASVSASPGQSITISCTGTHFDIVDYDYLSWYQQHPGNAPKLLIYGVSNRPSGVSSRFSGSKSGNTASLTISGLQAEDEGDYYCSSYSISSTLLVFGGGTKLSV
notes: also called ZV1; A9E mAb
[1]
  IC50 (read off the curve): ~0.07 µg/mL
[12]
  EC50, Vero-based neutralization assay against ZIKA/2015/Paraiba: 0.005 to 0.01 µg/mL
[3]
  binding result: no binding
[4]
  IC50 (read off the curve): ~0.06 µg/mL
[13]
  EC50: 0.04 µg/mL
[5]
  EC50 (read off the curve): ~0.02 µg/mL
[7]
  IC50 (read off the curve): ~0.008 µg/mL
[9]
  binding result: no binding
[14]
  EC50: 2.5 µg/mL
H/PF/2013
  FRNT50 (focus reduction neutralization on Vero cells): 4.7 ng/mL
MR766
  FRNT50 (focus reduction neutralization on Vero cells): 5.3 ng/mL
Dakar
  FRNT50 (focus reduction neutralization on Vero cells): 21.7 ng/mL
[11]
  EC50 (read off the curve): ~0.02 µg/mL
